Experimental data: US6846636B1, “Methods and compositions for HDL holoparticle uptake receptor” (American National Red Cross, priority 1998, dated 2005)

Legend:
[1] = system: visceral yolk sac endoderm; experiment: DiI-HDL uptake by mouse embryo yolk sac (ex utero culture, confocal microscopy); details: ± S.D.; DiI-HDL 1 μg/ml 1 h; RAP, ovalbumin 1 μM; IgGs 400 μg/ml; p<0.01 vs control
Procedure: Embryos (8-8.5 days post-conception) were removed from timed pregnant ICR mice (Harlan Sprague Dawley, Inc.) so as to leave visceral yolk sac endoderm intact and placed in DMEM. The embryos were then incubated in DMEM containing RAP (1 μM), ovalbumin (1 μM), rabbit anti-cubilin IgG (400 μg/ml) or normal rabbit IgG (400 μg/ml) for 0.5 h at 37° C., 5% CO2. DiI-HDL was added to a final concentration of (1 μg/ml) and incubated for 1 h at 37° C., 5% CO2. The medium was removed and the embryos gently washed with dPBS and fixed with 3% paraformaldehyde for 15 min. The fixed embryos were placed in dPBS, 0.1% azide in a well slide and examined by laser scanning confocal microscopy. The intensity of yolk sac fluorescence in mouse embryos incubated with DiI-HDL in the presence of either RAP, ovalbumin, anti-cubilin IgG or control IgG was evaluated by seven people in a double blinded fashion. The assessments of relative intensity were analyzed by a nonparametric statistical test using RANK and ANOVA procedures (SAS Institute, Inc., Cary, N.C.).

[2] = system: RA/Bt2cAMP-treated F9 cells; experiment: [125I]-HDL internalization and degradation assay; assay type: cell-based, mouse; details: [125I]-HDL 2 μg/ml, 6.5 h at 37° C.; unlabeled HDL 80 μg/ml, RAP 1 μM, chloroquine 50 μM, anti-cubilin IgG 150 μg/ml
Procedure: HDL internalization and degradation assays were performed in a manner similar to LDL and apolipoprotein J internalization and degradation assays described previously (Stefansson et al., 1995; Kounnas et al., 1995). ApoE-free HDL (HDL3) was labeled with [^125I]-iodine using the iodine monochloride method (Goldstein et al., 1983). RA/Bt2cAMP-treated and -untreated F9 cells were seeded onto gelatin-coated 3.83 cm^2 wells (Corning, Corning, N.Y.) at 1.5-1.75×10^5 cells/well and allowed to grow for 18 h at 37° C., 5% CO2. Prior to the addition of [^125I]-HDL, the cells were washed with serum-free DMEM and incubated in the assay medium (DMEM, 20 mM HEPES, ITS, penicillin/streptomycin, and 1.5% BSA) containing unlabeled HDL3 (80 μg/ml), RAP (1 μM), chloroquine (50 μM) (Sigma) or BSA (10 μM) and incubated for 0.5 hours at 37° C., 5% CO2. The medium was then removed and [^125I]-HDL3 (2 μg/ml) in serum-free medium or in serum-free medium containing unlabeled HDL3 (80 μg/ml), RAP (1 μM), chloroquine (50 μM) or BSA (10 μM) was added and incubated with the cells for 6.5 h at 37° C., 5% CO2. The conditioned culture medium was treated with trichloroacetic acid (final concentration 10%) and centrifuged at 10,000×g for 10 min. The amount of radioactivity present in the supernatant was taken to represent the amount of degraded HDL (Goldstein and Brown, 1974). […] The released cells were pelleted by centrifugation at 1,000×g for 15 min and the amount of radioactivity in the cell pellet measured.
HDL internalization and degradation assays were performed as described previously for LDL and apolipoprotein J (Hammad et al., 1997; Kounnas et al., 1995; Stefansson et al., 1995a). […] The amount of radioactivity in the supernatant was taken to represent the amount of degraded HDL (Goldstein and Brown, 1974). […] The released cells were pelleted by centrifugation at 1,000×g for 15 min and the amount of radioactivity in the cell pellet was measured and taken to represent the amount of internalized HDL.

B1: RAP: 39 kDa chaperone protein that inhibits ligand binding to LDLR family members; recombinant human RAP (protein, UniProt P30533 35-357, looked up)
Alpha-2-macroglobulin …: YSREKNQPKPSPKRESGEEFRMEKLNQLWEKAQRLHLPPVRLAELHADLKIQERDELAWKKLKLDGLDEDGEKEARLIRNLNVILAKYGLDGKKDARQVTSNSLSGTQEDGLDDPRLEKLWHKAKTSGKFSGEELDKLWREFLHHKEKVHEYNVLLETLSRTEEIHENVISPSDLSDIKGSVLHSRHTELKEKLRSINQGLDRLRRVSHQGYSTEAEFEEPRVIDLWDLAQSANLTDKELEAFREELKHFEAKIEKHNHYQKQLEIAHEKLRHAESVGDGERVSRSREKHALLEGRTKELGYTVKKHLQDLSGRISRARHNEL
- fluorescence intensity RANK score of DiI-HDL incorporation into extraembryonic endoderm [1]: 9.77±0.22
- degradation of [125I]-HDL [2]: inhibited the endocytosis and degradation
- internalization (endocytosis) of [125I]-HDL [2]: inhibited the endocytosis and degradation
